Measured values: patent publication US20190202883A1 (Takeda / Millennium, published 2019)
Square brackets hold non-standard residues; d marks the D form. Side chains are listed from the residue outwards. Phe(2-F) = N[C@@H](Cc1ccccc1F)C(=O)O; αMeF = C[C@](N)(Cc1ccccc1)C(=O)O; Iva = CC[C@](C)(N)C(=O)O; Oda = not defined here; Aib = CC(C)(N)C(=O)O

T1: human NPY2R (human, UniProt P49146 1-381)
T1 sequence (looked up): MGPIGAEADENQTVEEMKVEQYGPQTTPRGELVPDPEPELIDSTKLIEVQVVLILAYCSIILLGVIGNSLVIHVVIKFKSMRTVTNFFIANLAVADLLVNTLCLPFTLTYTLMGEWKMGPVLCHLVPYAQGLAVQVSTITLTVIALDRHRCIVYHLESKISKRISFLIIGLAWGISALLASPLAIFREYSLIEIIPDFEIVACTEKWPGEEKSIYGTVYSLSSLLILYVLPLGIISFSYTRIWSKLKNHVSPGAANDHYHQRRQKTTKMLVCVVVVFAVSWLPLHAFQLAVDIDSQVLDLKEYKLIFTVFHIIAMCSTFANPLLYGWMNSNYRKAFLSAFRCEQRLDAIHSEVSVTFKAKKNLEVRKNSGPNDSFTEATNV

T2: human GIPR (human, UniProt P48546 22-466)
T2 sequence (looked up): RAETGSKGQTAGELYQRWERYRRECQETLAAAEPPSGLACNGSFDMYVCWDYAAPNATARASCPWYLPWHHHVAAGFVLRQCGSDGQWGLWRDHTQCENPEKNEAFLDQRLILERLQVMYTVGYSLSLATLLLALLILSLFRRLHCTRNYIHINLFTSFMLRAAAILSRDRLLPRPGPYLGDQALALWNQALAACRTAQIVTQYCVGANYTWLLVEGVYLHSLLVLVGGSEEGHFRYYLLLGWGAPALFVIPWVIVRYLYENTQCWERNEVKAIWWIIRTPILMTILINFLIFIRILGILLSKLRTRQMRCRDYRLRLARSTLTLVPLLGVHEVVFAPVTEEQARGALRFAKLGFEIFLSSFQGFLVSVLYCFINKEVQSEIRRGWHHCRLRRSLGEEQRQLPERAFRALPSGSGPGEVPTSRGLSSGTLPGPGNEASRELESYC

B1: H-Tyr-Aib-Glu-Gly-Thr-αMePhe-Thr-Ser-Asp-Lys(-Gly-Gly-Gly-Gly-Oda)-Ser-Ile-Aib-Leu-Asp-Lys-Gln-Arg-Gln-Iva-Glu-Phe-Val-Arg-His-Leu-Leu-Asn-Lys-Aib-Thr-Arg-Gln-A … (peptide)
peptide: H-Y[Aib]EGT[αMeF]TSDK([Gly-Gly-Gly-Gly-Oda])SI[Aib]LDKQRQ[Iva]EFVRHLLNK[Aib]TRQRY-NH2
modifications: reading uncertain; also: printed as H-Tyr-Aib-Glu-Gly-Thr-αMePhe-Thr-Ser-Asp-Lys(-Gly-Gly-Gly-Gly-Oda)-Ser-Ile-Aib-Leu-Asp-Lys-Gln-Arg-Gln-Iva-Glu-Phe-Val-Arg-His-Leu-Leu-Asn-Lys-Aib-Thr-Arg-Gln-Arg-Tyr-NH2
B2: Me-Tyr-Aib-Glu-Gly-Thr-αMePhe-Thr-Ser-Asp-Lys(-Gly-Gly-Gly-Gly-Oda)-Ala-Ile-Aib-Leu-Asp-Lys-Gln-Arg-Gln-Iva-Glu-Phe-Val-Arg-His-Leu-Leu-Asn-Lys-Aib-Thr-Arg-Gln- … (peptide)
peptide: Me-Y[Aib]EGT[αMeF]TSDK([Gly-Gly-Gly-Gly-Oda])AI[Aib]LDKQRQ[Iva]EFVRHLLNK[Aib]TRQRY-NH2
modifications: reading uncertain; also: printed as Me-Tyr-Aib-Glu-Gly-Thr-αMePhe-Thr-Ser-Asp-Lys(-Gly-Gly-Gly-Gly-Oda)-Ala-Ile-Aib-Leu-Asp-Lys-Gln-Arg-Gln-Iva-Glu-Phe-Val-Arg-His-Leu-Leu-Asn-Lys-Aib-Thr-Arg-Gln-Arg-Tyr-NH2
B3: H-Tyr-Aib-Glu-Gly-Thr-αMePhe-Thr-Ser-Asp-Lys(-Gly-Gly-Gly-Gly-Oda)-Aib-Ile-Aib-Leu-Asp-Lys-Gln-Ala-Gln-Iva-Glu-Phe-Val-Arg-His-Leu-Leu-Asn-Lys-Aib-Thr-Arg-Gln-A … (peptide)
peptide: H-Y[Aib]EGT[αMeF]TSDK([Gly-Gly-Gly-Gly-Oda])[Aib]I[Aib]LDKQAQ[Iva]EFVRHLLNK[Aib]TRQR[Phe(2-F)]-NH2
modifications: reading uncertain; also: printed as H-Tyr-Aib-Glu-Gly-Thr-αMePhe-Thr-Ser-Asp-Lys(-Gly-Gly-Gly-Gly-Oda)-Aib-Ile-Aib-Leu-Asp-Lys-Gln-Ala-Gln-Iva-Glu-Phe-Val-Arg-His-Leu-Leu-Asn-Lys-Aib-Thr-Arg-Gln-Arg-Phe(2-F)-NH2
B4: H-Tyr-Aib-Glu-Gly-Thr-αMePhe-Thr-Ser-Asp-Lys(-Gly-Gly-Gly-Gly-Oda)-Ala-Ile-Aib-Leu-Asp-Lys-Gln-Arg-Gln-Iva-Glu-Phe-Val-Arg-His-Leu-Leu-Asn-Lys-Aib-Thr-Arg-Gln-A … (peptide)
peptide: H-Y[Aib]EGT[αMeF]TSDK([Gly-Gly-Gly-Gly-Oda])AI[Aib]LDKQRQ[Iva]EFVRHLLNK[Aib]TRQRY-NH2
modifications: reading uncertain; also: printed as H-Tyr-Aib-Glu-Gly-Thr-αMePhe-Thr-Ser-Asp-Lys(-Gly-Gly-Gly-Gly-Oda)-Ala-Ile-Aib-Leu-Asp-Lys-Gln-Arg-Gln-Iva-Glu-Phe-Val-Arg-His-Leu-Leu-Asn-Lys-Aib-Thr-Arg-Gln-Arg-Tyr-NH2
B5: H-Tyr-Aib-Glu-Gly-Thr-αMePhe-Thr-Ser-Asp-Lys(-Gly-Gly-Gly-Gly-Oda)-Aib-Lys-Aib-Leu-Asp-Lys-Gln-Arg-Gln-Iva-Glu-Phe-Val-Arg-His-Leu-Leu-Asn-Lys-Aib-Thr-Arg-Gln-A … (peptide)
peptide: H-Y[Aib]EGT[αMeF]TSDK([Gly-Gly-Gly-Gly-Oda])[Aib]K[Aib]LDKQRQ[Iva]EFVRHLLNK[Aib]TRQRY-NH2
modifications: reading uncertain; also: printed as H-Tyr-Aib-Glu-Gly-Thr-αMePhe-Thr-Ser-Asp-Lys(-Gly-Gly-Gly-Gly-Oda)-Aib-Lys-Aib-Leu-Asp-Lys-Gln-Arg-Gln-Iva-Glu-Phe-Val-Arg-His-Leu-Leu-Asn-Lys-Aib-Thr-Arg-Gln-Arg-Tyr-NH2

What follows are binders tested against T1, human NPY2R (assay: cell-based or functional assay).
In the case of B1, the “Agonist activity (EC50), Cre-luc reporter assay” value (from here on “Agonist activity (EC50)”) is reported as 2.6 nM.
B2 was tested, and the “Agonist activity (EC50)” value was 3.2 nM.
For H-Y[Aib]EGT[αMeF]TSDK([Gly-Gly-Gly-Gly-Pal])[Aib]K[Aib]LDKQRQ[Iva]EFVRHLLNK[Aib]TRQRY-NH2, the “Agonist activity (EC50)” value was 0.064 nM.
In the case of H-Y[Aib]EGT[αMeF]TSDK([Gly-Gly-Gly-Gly-Pal])[Aib]I[Aib]LDKQRQ[Iva]EFVRHLLNK[Aib]TRQR[Phe(2-F)]-NH2, the “Agonist activity (EC50)” value is reported as 0.22 nM.
In the case of Me-Y[Aib]EGT[αMeF]TSDK([Gly-Gly-Gly-Gly-Pal])SK[Aib]LDKQRQ[Iva]EFVRHLLNK[Aib]TRQRY-NH2, the “Agonist activity (EC50)” value is reported as 0.02 nM.
With B3 the “Agonist activity (EC50)” value was 2.1 nM.
In the case of B4, the “Agonist activity (EC50)” value is reported as 3 nM.
H-Y[Aib]EGT[αMeF]TSDK([Gly-Gly-Gly-Gly-Pal])SK[Aib]LDKQRQ[Iva]EFVRHLLNK[Aib]TRQRY-NH2 was tested, and the “Agonist activity (EC50)” value was 0.059 nM.
With B5 the “Agonist activity (EC50)” value was 1.5 nM.

These binders were tested against T2, human GIPR (assay: cell-based or functional assay).
For B1, the “Agonist activity (EC50)” value was 0.11 nM.
In the case of B2, the “Agonist activity (EC50)” value is reported as 0.17 nM.
For H-Y[Aib]EGT[αMeF]TSDK([Gly-Gly-Gly-Gly-Pal])[Aib]K[Aib]LDKQRQ[Iva]EFVRHLLNK[Aib]TRQRY-NH2, the “Agonist activity (EC50)” value was 0.044 nM.
H-Y[Aib]EGT[αMeF]TSDK([Gly-Gly-Gly-Gly-Pal])[Aib]I[Aib]LDKQRQ[Iva]EFVRHLLNK[Aib]TRQR[Phe(2-F)]-NH2 was tested, and the “Agonist activity (EC50)” value was 0.35 nM.
With Me-Y[Aib]EGT[αMeF]TSDK([Gly-Gly-Gly-Gly-Pal])SK[Aib]LDKQRQ[Iva]EFVRHLLNK[Aib]TRQRY-NH2 the “Agonist activity (EC50)” value was 0.048 nM.
For B3, the “Agonist activity (EC50)” value was 0.071 nM.
For B4, the “Agonist activity (EC50)” value was 0.26 nM.
With H-Y[Aib]EGT[αMeF]TSDK([Gly-Gly-Gly-Gly-Pal])SK[Aib]LDKQRQ[Iva]EFVRHLLNK[Aib]TRQRY-NH2 the “Agonist activity (EC50)” value was 0.091 nM.
B5 was tested, and the “Agonist activity (EC50)” value was 1 nM.

These binders were tested against human GLP-1R (human, UniProt P43220 24-463) (assay: cell-based or functional assay).
B1 was tested, and the “Agonist activity (EC50)” value was 0.47 nM.
With B2 the “Agonist activity (EC50)” value was 4.4 nM.
In the case of H-Y[Aib]EGT[αMeF]TSDK([Gly-Gly-Gly-Gly-Pal])[Aib]K[Aib]LDKQRQ[Iva]EFVRHLLNK[Aib]TRQRY-NH2, the “Agonist activity (EC50)” value is reported as 0.06 nM.
With H-Y[Aib]EGT[αMeF]TSDK([Gly-Gly-Gly-Gly-Pal])[Aib]I[Aib]LDKQRQ[Iva]EFVRHLLNK[Aib]TRQR[Phe(2-F)]-NH2 the “Agonist activity (EC50)” value was 0.38 nM.
For Me-Y[Aib]EGT[αMeF]TSDK([Gly-Gly-Gly-Gly-Pal])SK[Aib]LDKQRQ[Iva]EFVRHLLNK[Aib]TRQRY-NH2, the “Agonist activity (EC50)” value was 0.073 nM.
With B3 the “Agonist activity (EC50)” value was 0.11 nM.
For B4, the “Agonist activity (EC50)” value was 1.2 nM.
With H-Y[Aib]EGT[αMeF]TSDK([Gly-Gly-Gly-Gly-Pal])SK[Aib]LDKQRQ[Iva]EFVRHLLNK[Aib]TRQRY-NH2 the “Agonist activity (EC50)” value was 0.13 nM.
B5 was tested, and the “Agonist activity (EC50)” value was 0.94 nM.
